# Measurements reported in publication PMC8582585, “An HLA-A*11:01-Binding Neoantigen from Mutated NPM1 as Target for TCR Gene Therapy in AML” (Cancers, 2021).
# Peptide text beside a SMILES is read from it.
# B1: dNPM1 … peptide (peptide)
# peptide: AVEEVSLRK
# What was measured:
# HLA-A*02:01 (HLA-A2) = HLA-A*02:01 (HLA-A2) (Homo sapiens, UniProt P04439, D140Y/D185E/D98H/E176V/E277Q/G131W/G231S/I119V/I121R/I166T/I218V/L300P/L318F/N151K/N90K/P208A/P217A/Q86G/Q94H/R138H/R169H/T345S); settings: cited from earlier work
# Description: In this study, we investigated whether […] is also a neoantigen that can be targeted by TCR gene therapy. We isolated various T-cells for […] and cloned the TC ...
# HLA-A*03:01 (HLA-A3) = biological target: T1, HLA-A*03:01 (HLA-A3) (Homo sapiens, UniProt P04439); assay: Competition-based peptide-HLA class I binding assay, HLA-A3
# T1 construct: soluble HLA molecules mixed with a fluorescein-labeled peptide; made in house; host or cells: Escherichia coli
# HLA-A*11:01 (HLA-A11) = biological target: T2, HLA-A*11:01 (HLA-A11) (Homo sapiens, UniProt P04439, A114D/D185E/E176A/F33Y/L180Q/S129P/T187R); assay: Competition-based peptide-HLA class I binding assay, HLA-A11
# T2 construct: soluble HLA molecules mixed with a fluorescein-labeled peptide; made in house; host or cells: Escherichia coli
# [1] = biological target: soluble HLA-A*03:01 (heavy chain with β2M); assay: competition-based peptide-HLA class I binding assay (gel-filtration HPLC with fluorescence detection); 25 pmol HLA heavy chain, 25 pmol β2M, 100 fmol KVFPC(Fl)ALINK and 10-fold serial dilutions of competitor peptide in 100 µL; 100 mM phosphate, 75 mM NaCl, 1 mM CHAPS, pH 7; 24 h at RT; IC50 = 50% reduction of the fluorescent pHLA-complex peak
# [2] = biological target: soluble HLA-A*11:01 (heavy chain with β2M); assay: as above
molecule,measurement,setting,value
CLAVEEVSL,HLA-A2 binding,HLA-A*02:01 (HLA-A2),HLA-A*02:01 (HLA-A2)-binding
CC(C)C[C@H](NC(=O)[C@H](CO)NC(=O)[C@@H](NC(=O)[C@H](CCC(=O)O)NC(=O)[C@H](CCC(=O)O)NC(=O)[C@@H](NC(=O)[C@H](C)N)C(C)C)C(C)C)C(=O)N[C@@H](CCCNC(=N)N)C(=O)N[C@@H](CCCCN)C(=O)O (H-AVEEVSLRK-OH),IC50,HLA-A*03:01 (HLA-A3),1330 nM
same,IC50,HLA-A*11:01 (HLA-A11),50.9 nM
B1,IC50,[1],1330 nM
same,IC50,[2],50.9 nM
